This experiment has as its target T1, human SCF receptor, native, on cell membranes (human, UniProt P10721 26-976).
T1 construct: whole, on cells; also called human SCF receptors on OCIM1 cells (isolated OCIM1 plasma membrane); SCF receptors on leukemic blasts
As to the kind of experiment: radioreceptor assay: competition with 125I-huSCF on OCIM1 plasma membrane.

Description: The SCF radioreceptor assay was conducted as follows with all steps being performed on ice. […] A dilution of isolated OCIM1 plasma membrane in 50 ul buffer known to give 20% specific binding was then added to each tube. Tubes were vortexed and allowed to incubate for 24 hrs at 4° C. […] All tubes were oriented with lid opening tabs straight up. Supernatants were carefully aspirated by a sliding a 21 gauge needle down the side opposite the pellet (hinge side of tube) to bottom of each tube. Tubes were counted in gamma counter for 1 min. each.

B1: E. coli derived human SCF^1-130 analog (ligand)
chain: EGICRNRVTNNVKDVTKLVANLPKDYMITLKYVPGMDVLPSHCWISEMVVQLSDSLTDLLDKFSNISEGLSNYSIIDKLVNIVDDLVECVKENSSKDLKKSFKSPEPRLFTPEEFFRIFNRSIDAFKDFV
notes: Plasmid encodes an initiating methionine before residue 1; Dimeric in solution by gel filtration
Regarding B1, the “specific activity in the radioreceptor assay relative to SCF^1-164” value is ~50 % of the value for SCF^1-164.
